Measurements as given in the supplement of paper PMC9170038.

Test system: MS2 coat protein
Experiment: apparent KD of MS2 coat protein; designed switch direction (-1 OFF switch, 1 ON switch): -1; higher = weaker reporter binding
In short: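 Normalised cluster fluorescence was curve-fitted, and each design's median over clusters is its apparent KD. Before this, SNAP-549-labelled MS2 coat protein was titrated from 0.7 or 1.5 nM, doubling to 3 µM, over RNA switches transcribed on Illumina chips by stalled E. coli RNA polymerase. Titrations had no input, 200 uM small-molecule ligand, or an oligonucleotide input, and steps lasted 0.8–1.5 h (lowest) to 10–20 min (highest).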

[1] = Eterna round: R95, input ligand: microRNA oligo, concentration not stated
[2] = input ligand: microRNA oligo, concentration not stated
[3] = Eterna round: R95, input ligand: FMN 200 uM
[4] = Eterna round: R95, input ligand: none

| Sequence | apparent KD of MS2 coat protein (input ligand: FMN 200 uM) [nM] | apparent KD of MS2 coat protein (input ligand: none) [nM] | apparent KD of MS2 coat protein [1] [nM] | apparent KD of MS2 coat protein [2] [nM] | apparent KD of MS2 coat protein [3] [nM] | apparent KD of MS2 coat protein [4] [nM] |
| --- | --- | --- | --- | --- | --- | --- |
| GGUGAGCUAGGAUAUGCUUUGGGCUCGCUUUCCUUCGUUUUACUUGAGGAUCACCCAAGUAGAAGGAGCUUGCC [salish99_ex2_r4_036] (Eterna round: R97, puzzle: Exclusion 2) | 13.9 | 12.2 | – | – | – | – |
| GGUGCGUAUGUGAGGAUAUGCUGGUCCUUGGCUCGGCAGAAGGCACAUGAGGAUCACCCAUGUGGUGUCGUACU [salish99_Bmod_ex4_068] (puzzle: Brourd's mod of Exclusion 4) | – | – | 96.8 | – | – | – |
| GGUGGUAUGUCAGGAUAUACAGCCUAAAUGGAAGUAGAAGGGACACAUGAGGGUCACCCAUGUGACAUGAGGAUCACCCAUGUA [Hi3 10-05-2015] (Eterna round: R96, puzzle: Exclusion NG 1) | 64 | 60.7 | – | 41.1 | – | – |
| GGUUAUUGCAAGGAUAUGCUAUUAUUUUAUUUUGCAGAAGGUGCAACAUGAGGAUCACCCAUGUUGGAGGGUUU [JR_E6_Sub024] (puzzle: Exclusion 6) | – | – | 17.9 | – | – | – |
| GGUUGACAUGAGGAUCACCCAUGUGAGGAUAUGCGAGAGAAAAAAGUGAGGAAGAAAAGCAGAAGGCGCUGACG [salish99-ex1_r3_002] (puzzle: Exclusion 1) | – | – | 28.6 | – | 15.5 | 13.5 |
| GGUUGACAUGAGGAUCACCCAUGUGAGGAUAUGCGAGAGAAAAAAGUGAGGAAGAAAAGCAGAAGGCGCUGUCG [salish99-ex1_r3_003] (puzzle: Exclusion 1) | – | – | 22.4 | – | 29.8 | 45.5 |
| GGUUGACAUGAGGAUCACCCAUGUGAGGAUAUGCGAGAGAAAAAAGUGAGGAAGAUAAGCAGAAGGCGCUGUCG [salish99-ex1_r3_013] (puzzle: Exclusion 1) | – | – | 178 | – | 118 | 260 |
| GGUUGCGCAGGAUAUACAUGAGGAUCACCCAUGUGAGAGAAAUAAGUGAGGAAGAAAAGUAGAAGGGCGUGACG [Mat - Exclusion 3 - Mod of Salish D72] (puzzle: Exclusion 3) | – | – | 37.7 | – | 170 | 68.9 |
| GGUUGGCGAGGAUAUACAUGAGGAUCACCCAUGUGAGAGAAAACAGUGAGGAAGAAAAGUAGAAGGCGCUGACG [salish99_ex3_r3_024] (puzzle: Exclusion 3) | – | – | 52.6 | – | 466 | 48 |
| GGUUGGCGAGGAUAUACAUGAGGAUCACCCAUGUGAGAGAUACUAGUGAGGUCGAUUAGUAGAAGGCGCUGACG [JL-ex3-2.01 salish99 mod] (puzzle: Exclusion 3) | – | – | 31.1 | – | 174 | 32.2 |
| GUAAAAUAAGCUUAUUUACACAUGAGGAUCACCCAUGUAUUGGACGGACUCCUGACCUCAAUUAUAUGCUCGUAUCG [Eternabot (L1) Solution 41] (Eterna round: R97, puzzle: Sensor, turn-off variant 1) | 77.6 | 79.5 | – | – | – | – |
| GUAAAGGUAGGAUAUACGAAGAAAAAGGGUAGAAGAAGAACACAUGAGGAUCACCCAUGUAGAAGGACCAAAUG [Mat - Exclusion 2 - Mod of my Tesla design - D4] (puzzle: Exclusion 2) | – | – | 24.8 | – | 63.9 | 28.5 |
| GUAAUAGUGGUUAGGAUAUGCGAUCGAAAAUAGGUGCAGAAGGAACAUGAGGAUCACCCAUGUGCCUCCUCAAU [Eternabot (L1) Solution 6] (Eterna round: R97, puzzle: Brourd's mod of Exclusion 4) | 24.2 | 15.6 | – | – | – | – |
| GUAAUUAAUGUAGGAUAUGCAAGGCGAACCUAAGCAGAAGGACAUGAGGAUCACCCAUGUAUUGCGGUCUGCGUUCUGAUCGCU [salish99_ExNG1_r4_010] (Eterna round: R96, puzzle: Exclusion NG 1) | 19.1 | 17 | – | 8.25 | – | – |
| GUACUCGGAUGACAGUCCGACAUGAGGAUCACCCAUGUUUCAUUAAGGUCGUUGCUCGUCAAACAUCACUCAACCAG [Eternabot (L1) Solution 35] (Eterna round: R97, puzzle: Sensor, turn-off variant 1) | 43.2 | 51.5 | – | – | – | – |
